Source: publication PMC4775424 (Structure (London, England : 1993), 2016)
Entries after “also recorded” stand apart in the source; their conditions may differ.

Tests used:
mouse ORC1 BAH domain = conditions: mouse version; four-residue aromatic cage; ref Kuo et al., 2012; cited from earlier work
human ORC1 BAH domain = conditions: human version; ref Kuo et al., 2012; cited from earlier work
[1] = molecular target: unmodified H3(1-15) peptide; test: ITC
[2] = molecular target: H3 peptide dimethylated at K4; test: ITC
[3] = molecular target: H3 peptide monomethylated at K4; test: ITC

Row | Kd [1] [nM] | fold decrease of the binding against the unmodified H3 peptide [2] [fold] | fold decrease of the binding against the unmodified H3 peptide [3] [fold] | Molecule | recognition by ORC1 BAH domain (mouse ORC1 BAH domain) | recognition by ORC1 BAH domain (human ORC1 BAH domain)
1 | – | – | – | H4K20me2: histone mark H4K20me2 / H4K20me2 peptide bound by metazoan ORC1 BAH domains | can use a four-residue aromatic cage to recognize the methyllysine of H4K20me2; also recorded: specifically recognize | specifically recognize
2 | 3000 | 10 | 4 | Arabidopsis thaliana ORC1b BAH-PHD cassette (domain or fragment) SETIKKTKKKKRVYYNKVEFDETEFEIGDDVYVKRREDSNSDEEEDPEIEDCQICFKSDTNIMIECDDCLGGFHLKCLKPPLKEVPEGDWICQFCEVKKSGQSQTLDLPKPPEGKKLARTMREKLLSGDLWAARIDKLWKEVDDGVYWIRARWYMIPEETVSGRQPHNLKRELYLTNDFADIEMECILRHCSVKCPKEFSKASNDGDDVFLCEYEYDVHWRSFKRLAELADG | – | –
